In the supplement of paper PMC10567573:

B1: FAM107A (parent)
chain: LQRVLEHRRRNQLIKKKKEELEAK

Variants of: B1
Test: protein stability index of a GFP-peptide fusion (GPS, HEK-293T) (PSI 1-6); higher = more stable
Settings: c terminus: a fixed tail appended
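Further: lentivirally expressed fusions sorted by FACS into six bins by GFP to DsRed ratio, PSI derived from sequencing read proportions per bin multiplied by bin number.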

Q: With LQRVLEHRRRNQLYKKKKEELEAK [I14Y] as the variant, how does the protein stability index read?
A: 3.28

Q: Which protein stability index does the source give for LQRVLEHRRRNQLIAKKKEELEAK [K15A] here?
A: 4.16

Q: With LQRVLEHRRRNQLICKKKEELEAK [K15C] as the variant, how does the protein stability index read?
A: 3.52

Q: With LQRVLEHRRRNQLIDKKKEELEAK [K15D] as the variant, how does the protein stability index read?
A: 3.61

Q: Which protein stability index does the source give for LQRVLEHRRRNQLIEKKKEELEAK [K15E] here?
A: 4.74

Q: With LQRVLEHRRRNQLIGKKKEELEAK [K15G] as the variant, how does the protein stability index read?
A: 4.49

Q: With LQRVLEHRRRNQLIHKKKEELEAK [K15H] as the variant, how does the protein stability index read?
A: 4.23

Q: With LQRVLEHRRRNQLIIKKKEELEAK [K15I] as the variant, how does the protein stability index read?
A: 3.24

Q: With LQRVLEHRRRNQLILKKKEELEAK [K15L] as the variant, how does the protein stability index read?
A: 3.84

Q: For LQRVLEHRRRNQLIMKKKEELEAK [K15M], which protein stability index is on record?
A: 3.98

Q: For LQRVLEHRRRNQLINKKKEELEAK [K15N], which protein stability index is on record?
A: 4

Q: Which protein stability index does the source give for LQRVLEHRRRNQLIPKKKEELEAK [K15P] here?
A: 4.18

Q: Which protein stability index does the source give for LQRVLEHRRRNQLIQKKKEELEAK [K15Q] here?
A: 3.7

Q: With LQRVLEHRRRNQLIRKKKEELEAK [K15R] as the variant, how does the protein stability index read?
A: 3.34

Q: Which protein stability index does the source give for LQRVLEHRRRNQLISKKKEELEAK [K15S] here?
A: 3.86

Q: Which protein stability index does the source give for LQRVLEHRRRNQLITKKKEELEAK [K15T] here?
A: 3.87

Q: Which protein stability index does the source give for LQRVLEHRRRNQLIYKKKEELEAK [K15Y] here?
A: 3.51

Q: Which protein stability index does the source give for LQRVLEHRRRNQLIKAKKEELEAK [K16A] here?
A: 4.15

Q: For LQRVLEHRRRNQLIKCKKEELEAK [K16C], which protein stability index is on record?
A: 3.26

Q: Which protein stability index does the source give for LQRVLEHRRRNQLIKDKKEELEAK [K16D] here?
A: 4.44

Q: With LQRVLEHRRRNQLIKEKKEELEAK [K16E] as the variant, how does the protein stability index read?
A: 3.94

Q: Which protein stability index does the source give for LQRVLEHRRRNQLIKGKKEELEAK [K16G] here?
A: 4.52

Q: Which protein stability index does the source give for LQRVLEHRRRNQLIKHKKEELEAK [K16H] here?
A: 3

Q: With LQRVLEHRRRNQLIKIKKEELEAK [K16I] as the variant, how does the protein stability index read?
A: 3.28

Q: For LQRVLEHRRRNQLIKMKKEELEAK [K16M], which protein stability index is on record?
A: 3.09

Q: With LQRVLEHRRRNQLIKNKKEELEAK [K16N] as the variant, how does the protein stability index read?
A: 4.07

Q: With LQRVLEHRRRNQLIKQKKEELEAK [K16Q] as the variant, how does the protein stability index read?
A: 3.82

Q: Which protein stability index does the source give for LQRVLEHRRRNQLIKRKKEELEAK [K16R] here?
A: 3.04

Q: Which protein stability index does the source give for LQRVLEHRRRNQLIKSKKEELEAK [K16S] here?
A: 4

Q: Which protein stability index does the source give for LQRVLEHRRRNQLIKTKKEELEAK [K16T] here?
A: 3.85

Q: For LQRVLEHRRRNQLIKWKKEELEAK [K16W], which protein stability index is on record?
A: 3.58

Q: Which protein stability index does the source give for LQRVLEHRRRNQLIKYKKEELEAK [K16Y] here?
A: 2.41

Q: For LQRVLEHRRRNQLIKKAKEELEAK [K17A], which protein stability index is on record?
A: 3.44

Q: Which protein stability index does the source give for LQRVLEHRRRNQLIKKCKEELEAK [K17C] here?
A: 2.8

Q: Which protein stability index does the source give for LQRVLEHRRRNQLIKKDKEELEAK [K17D] here?
A: 4.78

Q: Which protein stability index does the source give for LQRVLEHRRRNQLIKKEKEELEAK [K17E] here?
A: 4.31

Q: With LQRVLEHRRRNQLIKKFKEELEAK [K17F] as the variant, how does the protein stability index read?
A: 3.73

Q: With LQRVLEHRRRNQLIKKGKEELEAK [K17G] as the variant, how does the protein stability index read?
A: 4.27

Q: For LQRVLEHRRRNQLIKKHKEELEAK [K17H], which protein stability index is on record?
A: 3.52

Q: For LQRVLEHRRRNQLIKKIKEELEAK [K17I], which protein stability index is on record?
A: 2.58

Q: With LQRVLEHRRRNQLIKKLKEELEAK [K17L] as the variant, how does the protein stability index read?
A: 3.5

Q: For LQRVLEHRRRNQLIKKMKEELEAK [K17M], which protein stability index is on record?
A: 3.16

Q: For LQRVLEHRRRNQLIKKQKEELEAK [K17Q], which protein stability index is on record?
A: 3.8

Q: For LQRVLEHRRRNQLIKKTKEELEAK [K17T], which protein stability index is on record?
A: 4.38

Q: With LQRVLEHRRRNQLIKKVKEELEAK [K17V] as the variant, how does the protein stability index read?
A: 3.25

Q: Which protein stability index does the source give for LQRVLEHRRRNQLIKKWKEELEAK [K17W] here?
A: 3.74

Q: Which protein stability index does the source give for LQRVLEHRRRNQLIKKYKEELEAK [K17Y] here?
A: 3.37

Q: For LQRVLEHRRRNQLIKKKAEELEAK [K18A], which protein stability index is on record?
A: 4.54

Q: For LQRVLEHRRRNQLIKKKCEELEAK [K18C], which protein stability index is on record?
A: 3.37

Q: With LQRVLEHRRRNQLIKKKDEELEAK [K18D] as the variant, how does the protein stability index read?
A: 4.4

Q: Which protein stability index does the source give for LQRVLEHRRRNQLIKKKEEELEAK [K18E] here?
A: 3.89

Q: For LQRVLEHRRRNQLIKKKFEELEAK [K18F], which protein stability index is on record?
A: 4.52

Q: Which protein stability index does the source give for LQRVLEHRRRNQLIKKKHEELEAK [K18H] here?
A: 3.67

Q: Which protein stability index does the source give for LQRVLEHRRRNQLIKKKIEELEAK [K18I] here?
A: 2.74

Q: For LQRVLEHRRRNQLIKKKLEELEAK [K18L], which protein stability index is on record?
A: 2.81

Q: With LQRVLEHRRRNQLIKKKMEELEAK [K18M] as the variant, how does the protein stability index read?
A: 3.57

Q: With LQRVLEHRRRNQLIKKKNEELEAK [K18N] as the variant, how does the protein stability index read?
A: 3.41

Q: For LQRVLEHRRRNQLIKKKPEELEAK [K18P], which protein stability index is on record?
A: 4.37

Q: With LQRVLEHRRRNQLIKKKQEELEAK [K18Q] as the variant, how does the protein stability index read?
A: 3.04

Q: Which protein stability index does the source give for LQRVLEHRRRNQLIKKKSEELEAK [K18S] here?
A: 3.62

Q: For LQRVLEHRRRNQLIKKKTEELEAK [K18T], which protein stability index is on record?
A: 3.93

Q: Which protein stability index does the source give for LQRVLEHRRRNQLIKKKVEELEAK [K18V] here?
A: 3.21

Q: With LQRVLEHRRRNQLIKKKWEELEAK [K18W] as the variant, how does the protein stability index read?
A: 3.1

Q: Which protein stability index does the source give for LQRVLEHRRRNQLIKKKYEELEAK [K18Y] here?
A: 3.11

Q: With LQRVLEHRRRNQLIKKKKCELEAK [E19C] as the variant, how does the protein stability index read?
A: 2.46

Q: With LQRVLEHRRRNQLIKKKKDELEAK [E19D] as the variant, how does the protein stability index read?
A: 4.2

Q: With LQRVLEHRRRNQLIKKKKFELEAK [E19F] as the variant, how does the protein stability index read?
A: 2.22

Q: Which protein stability index does the source give for LQRVLEHRRRNQLIKKKKHELEAK [E19H] here?
A: 2.87

Q: Which protein stability index does the source give for LQRVLEHRRRNQLIKKKKIELEAK [E19I] here?
A: 3.12

Q: For LQRVLEHRRRNQLIKKKKKELEAK [E19K], which protein stability index is on record?
A: 2.97

Q: For LQRVLEHRRRNQLIKKKKLELEAK [E19L], which protein stability index is on record?
A: 1.86

Q: Which protein stability index does the source give for LQRVLEHRRRNQLIKKKKMELEAK [E19M] here?
A: 3.19

Q: With LQRVLEHRRRNQLIKKKKNELEAK [E19N] as the variant, how does the protein stability index read?
A: 2.98

Q: With LQRVLEHRRRNQLIKKKKPELEAK [E19P] as the variant, how does the protein stability index read?
A: 3.41

Q: With LQRVLEHRRRNQLIKKKKQELEAK [E19Q] as the variant, how does the protein stability index read?
A: 2.56

Q: With LQRVLEHRRRNQLIKKKKRELEAK [E19R] as the variant, how does the protein stability index read?
A: 2.56

Q: For LQRVLEHRRRNQLIKKKKSELEAK [E19S], which protein stability index is on record?
A: 3.13

Q: For LQRVLEHRRRNQLIKKKKTELEAK [E19T], which protein stability index is on record?
A: 3.19

Q: With LQRVLEHRRRNQLIKKKKVELEAK [E19V] as the variant, how does the protein stability index read?
A: 2.7

Q: For LQRVLEHRRRNQLIKKKKYELEAK [E19Y], which protein stability index is on record?
A: 3.23

Q: Which protein stability index does the source give for LQRVLEHRRRNQLIKKKKEALEAK [E20A] here?
A: 3.12

Q: Which protein stability index does the source give for LQRVLEHRRRNQLIKKKKEDLEAK [E20D] here?
A: 3.71

Q: Which protein stability index does the source give for LQRVLEHRRRNQLIKKKKEFLEAK [E20F] here?
A: 2.52

Q: With LQRVLEHRRRNQLIKKKKEGLEAK [E20G] as the variant, how does the protein stability index read?
A: 2.42

Q: For LQRVLEHRRRNQLIKKKKEHLEAK [E20H], which protein stability index is on record?
A: 2.83

Q: For LQRVLEHRRRNQLIKKKKEILEAK [E20I], which protein stability index is on record?
A: 3.35

Q: For LQRVLEHRRRNQLIKKKKEKLEAK [E20K], which protein stability index is on record?
A: 3.34

Q: For LQRVLEHRRRNQLIKKKKELLEAK [E20L], which protein stability index is on record?
A: 3.03

Q: For LQRVLEHRRRNQLIKKKKEMLEAK [E20M], which protein stability index is on record?
A: 3.5

Q: With LQRVLEHRRRNQLIKKKKENLEAK [E20N] as the variant, how does the protein stability index read?
A: 3.35

Q: With LQRVLEHRRRNQLIKKKKEPLEAK [E20P] as the variant, how does the protein stability index read?
A: 3.74

Q: Which protein stability index does the source give for LQRVLEHRRRNQLIKKKKEQLEAK [E20Q] here?
A: 2.12

Q: With LQRVLEHRRRNQLIKKKKESLEAK [E20S] as the variant, how does the protein stability index read?
A: 3.99

Q: Which protein stability index does the source give for LQRVLEHRRRNQLIKKKKETLEAK [E20T] here?
A: 3.45
